Where a chain is given by its changes, count along the chain named.
Key:
[1] = biological target: T1, HOXB1HD;PBX1HD (;, UniProt P14653;P40424 171-266;227-317, |); test: fluorescence polarization; HOXB1HD titrated into preformed PBX1HD:control; FP and EMSA: 20 mM Na/K phosphate pH 7.2, 150 mM NaCl, 5% glycerol, 1 mM TCEP, room temperature (FP 9 nM DNA, 30 min; EMSA gel run at 4 C in 0.5x TBE); NMR: 20; details: protein: recombinant;recombinant; tags: GST cleaved (pGEX-6P);GST cleaved (pGEX-6P); copies: 1;1; label: 5' 6-FAM (FP); unlabeled in EMSA
[2] = biological target: T1, HOXB1HD;PBX1HD; test: fluorescence polarization; HOXB1HD titrated into preformed PBX1HD:PH; FP and EMSA: 20 mM Na/K phosphate pH 7.2, 150 mM NaCl, 5% glycerol, 1 mM TCEP, room temperature (FP 9 nM DNA, 30 min; EMSA gel run at 4 C in 0.5x TBE); NMR: 20; details: protein: recombinant;recombinant; tags: GST cleaved (pGEX-6P);GST cleaved (pGEX-6P); copies: 1;1; label: 5' 6-FAM (FP); unlabeled in EMSA
[3] = biological target: T1, HOXB1HD;PBX1HD; test: fluorescence polarization; HOXB1HD titrated into preformed PBX1HD:PMH; FP and EMSA: 20 mM Na/K phosphate pH 7.2, 150 mM NaCl, 5% glycerol, 1 mM TCEP, room temperature (FP 9 nM DNA, 30 min; EMSA gel run at 4 C in 0.5x TBE); NMR: 20; details: protein: recombinant;recombinant; tags: GST cleaved (pGEX-6P);GST cleaved (pGEX-6P); copies: 1;1; label: 5' 6-FAM (FP); unlabeled in EMSA and NMR
[4] = biological target: T2, PREP1hd;PBX1HD (;, UniProt P55347;P40424 257-325;227-317, |); test: fluorescence polarization; PREP1hd titrated into preformed PBX1HD (0.3 uM):PMH; FP and EMSA: 20 mM Na/K phosphate pH 7.2, 150 mM NaCl, 5% glycerol, 1 mM TCEP, room temperature (FP 9 nM DNA, 30 min; EMSA gel run at 4 C in 0.5x TBE); NMR: 20; details: protein: recombinant;recombinant; tags: GST cleaved (pGEX-6P);GST cleaved (pGEX-6P); copies: 1;1; label: 5' 6-FAM (FP); unlabeled in EMSA and NMR
T2 sequence 1: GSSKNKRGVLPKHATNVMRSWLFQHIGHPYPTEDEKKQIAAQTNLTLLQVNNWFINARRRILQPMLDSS
T2 sequence 2: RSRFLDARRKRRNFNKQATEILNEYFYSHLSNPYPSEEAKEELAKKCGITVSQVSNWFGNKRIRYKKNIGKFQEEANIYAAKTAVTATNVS

[5] = biological target: T3, PREP1HD;PBX1HD (;, UniProt P55347;P40424 240-344;227-317, |); test: fluorescence polarization; PREP1HD titrated into preformed PBX1HD (0.3 uM):PMH; FP and EMSA: 20 mM Na/K phosphate pH 7.2, 150 mM NaCl, 5% glycerol, 1 mM TCEP, room temperature (FP 9 nM DNA, 30 min; EMSA gel run at 4 C in 0.5x TBE); NMR: 20; details: protein: recombinant;recombinant; tags: GST cleaved (pGEX-6P);GST cleaved (pGEX-6P); copies: 1;1; label: 5' 6-FAM (FP); unlabeled in EMSA and NMR
T3 sequence 1: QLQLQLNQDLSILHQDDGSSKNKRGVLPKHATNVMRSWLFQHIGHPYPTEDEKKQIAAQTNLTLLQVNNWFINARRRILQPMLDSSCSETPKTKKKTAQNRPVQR
T3 sequence 2: T2 sequence 2

[6] = biological target: T4, PREP1HD KKKK->AAAA (UniProt P55347 240-344, K331A;K333A;K334A;K335A); test: fluorescence polarization; FP and EMSA: 20 mM Na/K phosphate pH 7.2, 150 mM NaCl, 5% glycerol, 1 mM TCEP, room temperature (FP 9 nM DNA, 30 min; EMSA gel run at 4 C in 0.5x TBE); NMR: 20; details: protein: recombinant; tags: GST cleaved (pGEX-6P); label: 5' 6-FAM (FP); unlabeled in EMSA and NMR
T4 sequence: T3 sequence 1 with K92A, K94A, K95A, K96A

T1 sequence (P14653 171-266, chain 1 of 2, one chain of several): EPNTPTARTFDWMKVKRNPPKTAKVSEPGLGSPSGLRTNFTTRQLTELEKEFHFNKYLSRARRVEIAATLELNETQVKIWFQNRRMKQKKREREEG

B1: Control (dsDNA)
DNA 1: AGGATAACCTGGGATT
DNA 2: AATCCCAGGTTATCCT
B1 was tested. Which Kd [1] did it give?
The Kd was 34.7 ± 1.7 µM.

B2: PH (dsDNA)
DNA 1: AGAGTGATTGATAAGG
DNA 2: CCTTATCAATCACTCT
How did the Kd [2] turn out when B2 was run?
Its Kd is 0.39 ± 0.1 µM.

B3: PMH (dsDNA)
DNA 1: AGTGATTGACAGATTC
DNA 2: GAATCTGTCAATCACT
How did the Kd [3] turn out when B3 was run?
Its Kd is 1.3 ± 0.3 µM.

And the Kd [4]?
The Kd was 5.1 ± 1.8 µM.

And the Kd [5]?
Its Kd is 1.9 ± 0.5 µM.

And the Kd [6]?
Its Kd is 21.8 ± 0.8 µM.

Reference: publication PMC5240567, “New Insights into Cooperative Binding of Homeodomain Transcription Factors PREP1 and PBX1 to DNA”
